Test: soluble on expression in E. coli; label from the status in PepcDB or PDB records

Sequence	soluble on expression in E. coli
MSLEYKLTPSYLLKENMVLACGNILFADDGFSVHVIEKLQELLTEEEKENIALVDAGAGAPQQVLTLIDSEAKTKKIIVVDIIDYGLEPGEIKILTMDDLPKPEHTKVDSHDWPLSTTMYRVFRDAPHEIDFKVVGCQKKYVSEPDVVIELSEEVQNAVDVAVDIVLSELRGKPINEGHHHHHH	soluble
MGSDKIHHHHHHMTDNIKSRRSAVPGCAIHCHDCSMGTLCIPFTLNNNELDQLDDIIERKKPIQKGEQIFKSGDSLKSLYAIRSGTIKSYTITEQGDEQITGFHLAGDVIGFDGIHSQIHQSFAQALETSMVCEIPFDTLDELSGTMPKLRQQIMRLMSNEIQSDQEMILLLSKKNAEERLAAFISNLASRFGSRGFSPKEFRLTMTRGDIGNYLGLTVETISRLLGRFQKAELIEVKGKYITIVDFDSLNKLAGNNKIGR	not soluble
GAGAYAYKTIKEDQKRYNERVMGLGLSPEEKQRRAIASATEGGSVPQIRAPSHVPFLLIGGGTAAFAAARSIRARDPGARVLIVSEDPELPYMRPPLSKELWFSDDPNVTKTLQFRQWNGKERSIYFQPPSFYVSAQDLPNIENGGVAVLTGKKVVHLDVRGNMVKLNDGSQITFEKCLIATGGTPRSLSAIDRAGAEVKSRTTLFRKIGDFRALEKISREVKSITVIGGGFLGSELACALGRKSQASGIEVIQLFPEKGNMGKILPQYLSNWTMEKVKREGVKVMPNAIVQSVGVSGGRLLIKLKDGRKVETDHIVTAVGLEPNVELAKTGGLEIDSDFGGFRVNAELQARSNIWVAGDAACFYDIKLGRRRVEHHDHAVVSGRLAGENMTGAAKPYWHQSMFWSDLGPDVGYEAIGLVDSSLPTVGVFAKATAQDNPKSATEQSGTGIRSESETESEASEITIPPSAPAVPQVPVEGEDYGKGVIFYLRDKVVVGIVLWNVFNRMPIARKIIKDGEQHEDLNEVAKLFNIHED	soluble
MQSFADAKEFFQYSAGQWQSRRVTHHLPFRRAESGGSNIQVETLEKDDPRIIEICQMHDMDASLSVGGSYVTWAGTMQWDKDDENHEGSTVFALIPDADNPRQGKLLRERGYAEIVPVAGEYHLDHEDGLVLTTEYETMTIYERFWFANPDLRLRTSTVKRFGGFNTTTFCMEERIQTSPVTATAAAETNPLYAISGW	not soluble
MSLWHGVIVATSLPFDDDLSVDFGAYGESVAHLAAQGMHGVAPNGSLGEYQTLTYEERDRVVETAVANAPEGFTVMPGVGAYGGREAERHARFAKDAGCQAVMCLPPNAYRADDRAVLQHFERVASVGLPVTAYNNPIDTKVDLRPDLLAKLHAEGYIVGVKEFSGDVRRCYEISELAPGLDLMIGTDDTVLEVALAGAKGWVAGYPQVFPRACLALYEASVRGDLEAALPLYRQLHPVLRWDSKTEFVQAIKLGQELTGRRGGPCRPPRQPLAPETEAVVRAATQALVDAGVNEGHHHHHH	soluble
MGEAAKDQTEEVIQAWYLDNKEEDQKLPHHKDPKEFVSLDKLAELGVLCWRLDADNYETDEELKRIRESRGYSYMDLCEVCPEKLPNYEEKVKMFFEEHLHIDEEIRYCLAGSGYFDVRDLNDIWIRVWVKKGGLIVFPAGIYHRFTVDSDNYMKAMRLFVGGPVWTAYNRPHDHLPARKAYMKKFLKVIGDRNIDASA	soluble
MAKKIVIIGAGAGGGISLSKLRRVLKDEDVDITIIDKLGRTDFQPSYIFLSIGQKRVKDLSRDFNLLNGGHVKTVKDEVVSVDAQNRIVNTLKGKYSYDYLIMSPGPDIKKDSFEGIEATDSVWTLEDSLKLRAKIKEFNGGKILISVSSQWYKCPPVPWEMALLLDDYFRKKNMRDKVEITVAHPVSKPMEMYGPGLSDPFAKMLEKRSIGGLYGKKLLGIDASKKEAVFEDDDRLRFDLSIVAPPHSPPSFIKDNEYLRSKNGWASTNLKDFRNPKYDDIFAIGDVIAPTIQIGMAGVLAHFQADTASSAIAEDIIGYPFIDYNKNAVCIIATGSSGVFSYCDLSAKLTDPSVKFPECRMIGNDPLFRFAHDLYEVNFLSSIYGNRLEHHHHHH	not soluble
MSLYIPCLMCTQHPDSTVKITAGEEVDEAVVAFLAYGCDEVMVDYEGKATPYSQPRDVASKALALGLPLGERFFITPRVPNPRLEDFERSMLSLEAAVLANSYSQRAAGVQAVKWVVLPMTEDVETMAFVYKALDMKARDLAELNAVKRDSSIELIPLVEDAMRQIKIESFIKALFRTAAQSGRILEHMRIFLGISDSAVRHGHMASALAMVKALGQISEINRDGEFKISPIVGMGSPPFRGGLNNPHLAVPEAAQYAGYKTATIQSAVRYDVSYAEYQKVREAILSVYTPRRLHVEEAWITKASELYREAIRPYIGKIAELANAIPSTRDRVSWREYGRVIEGVEWRVPRAIVYTATWYFAGVPPTLLDARFIAWAYKNDLLDDVLRALPATVEEWKFESRFYSRERAEKTLGGEIVKDIDNAFDILGIKPEPDRTYITLLNSADTQPHAIALGRIRGFLGEGHHHHHH	not soluble
MQKRHTNRERYFEEQAQTTRNYYIPYIKEYTGNLPNKVLEVGCGEGGNLLPFAELGCDVIGIDIAASRIEQAQNFFITKRQKGTFIASDIFLLKDLQKHFPLILIHDVIEHIDNKEQFLRNLKKYLSPNGMIFIAFPAWQMPFGGHQQIARSKIISHMPFIHLLPRMLYKRILELFSEQESTVKELLTIKYTRCTIEMFRRVVKQTDYQIVNEQLYFINPHYKIKFGLTPHKLNKTIACIPFIRNVFSTSCFYLIRPT	not soluble
MSQFDLTPPSPAQRDALIAGLSDEEQRVLLHHGTEAPFCGVFLDNKLDGVYTCRLCGLPLFRSNAKFDSGTGWPSFFAPYDPAHVREIRDTSYGMVRTEIVCARCDSHLGHVFPDGPPPTGERHSLNSVSLAFTEDGQPLPNPLQRAGAETQPA	soluble
MMKPSVSAAILAAGTSTRMNEMKQLAKIQGTYMLKYVIDQVSNHPFQHIFVIVGHQADIVMKMIQVEDKRVQWLVNDQYKQGQSTSFKLAMEQARQYGDAVMMFLADQPLIEKETVNIVLNEGITRVQEEPFIVRPMYEKKEGHPVYWGNIHALDCSAVNGDKGGKTLMEELERMLIPVHDQGVLVDVDTCEDYKKVNDLMKRKSPSTHLEHHHHHH	not soluble
MLNRIIEHMNAHHVEDMKGLLKKFGQVHHAENVAFKSVDSQGIVIGYNNNQTLRIEFNHEVKDPKDYKNATIELCQSVEKTHDLKGVEEEVKAFKEGFDSVCLATLHPNGHVVCSYAPLMSDGKQYYIYVSEVAEHFAGLKNNPHNVEVMFLEDESKAKSAILRKRLRYKTNTRFIERGAEFDKAFDSFIEKTGGAGGIKTIRAMQDFHLIALDFKEGRFVKGFGQAYDILGDKIAYVGDKGNPHNFAHKKLEHHHHHH	soluble
MGSDKIHHHHHHMNAVISILVENTTPSPSLIGEYGFSALVEVDERKILFDTGSSDALFKNAENLGVKLEEVEALVISHGHFDHTSAVIPFLQRFGPKKLYLHPGIFSQRYLQGKKGLGPNIGCPFEPEDLVKNGAEIIFIDSFSEIMPGVFISGEIPRRNSFENTGGNFKVATHHGLLEDRLLDDMALLVDHPEGLIIISGCAHSGMINTIEYIREKTGRSKILAFIGGTHLITASEDRLAQTIAVLKMMDIEKIAVGHCTGFYAAARLLNELGPRVIKADTGMSFSF	not soluble
MAHHHHHHMIFIHSLRLRHNLVSKNVERCTVFAFLDADFITAIRHKVRELKRAARRQPHRSALEVYSQERPTRHHVLPPPHYFSEKVGVDCCVLYIPEVEDFPLLDAFFFVNSNPVTLVGLRMATAGEHHTTASTVRQFTECLAAYFNGWEELSRDMSWETIYVQHADSTPMNDWQRCDVVNSDNVSKKENREIVAFWEEEVHQYLAVISSADARRGEAL	not soluble
MLEQMGIAAKQASYKLAQLSSREKNRVLEKIADELEAQSEIILNANAQDVADARANGLSEAMLDRLALTPARLKGIADDVRQVCNLADPVGQVIDGGVLDSGLRLERRRVPLGVIGVIYEARPNVTVDVASLCLKTGNAVILRGGKETCRTNAATVAVIQDALKSCGLPAGAVQAIDNPDRALVSEMLRMDKYIDMLIPRGGAGLHKLCREQSTIPVITGGIGVCHIYVDESVEIAEALKVIVNAKTQRPSTCNTVETLLVNKNIADSFLPALSKQMAESGVTLHADAAALAQLQAGPAKVVAVKAEEYDDEFLSLDLNVKIVSDLDDAIAHIREHGTQHSDAILTRDMRNAQRFVNEVDSSAVYVNASTRFTDGGQFGLGAEVAVSTQKLHARGPMGLEALTTYKWIGIGDYTIRA	soluble

Reference: the DeepSol protein solubility set
